The target in data set [1] is FLAG-APP, P05067.
Data set [2] addresses T1, FLAG-Alcalpha.
T1 chain 1: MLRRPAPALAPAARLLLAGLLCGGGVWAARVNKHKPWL
T1 chain 2: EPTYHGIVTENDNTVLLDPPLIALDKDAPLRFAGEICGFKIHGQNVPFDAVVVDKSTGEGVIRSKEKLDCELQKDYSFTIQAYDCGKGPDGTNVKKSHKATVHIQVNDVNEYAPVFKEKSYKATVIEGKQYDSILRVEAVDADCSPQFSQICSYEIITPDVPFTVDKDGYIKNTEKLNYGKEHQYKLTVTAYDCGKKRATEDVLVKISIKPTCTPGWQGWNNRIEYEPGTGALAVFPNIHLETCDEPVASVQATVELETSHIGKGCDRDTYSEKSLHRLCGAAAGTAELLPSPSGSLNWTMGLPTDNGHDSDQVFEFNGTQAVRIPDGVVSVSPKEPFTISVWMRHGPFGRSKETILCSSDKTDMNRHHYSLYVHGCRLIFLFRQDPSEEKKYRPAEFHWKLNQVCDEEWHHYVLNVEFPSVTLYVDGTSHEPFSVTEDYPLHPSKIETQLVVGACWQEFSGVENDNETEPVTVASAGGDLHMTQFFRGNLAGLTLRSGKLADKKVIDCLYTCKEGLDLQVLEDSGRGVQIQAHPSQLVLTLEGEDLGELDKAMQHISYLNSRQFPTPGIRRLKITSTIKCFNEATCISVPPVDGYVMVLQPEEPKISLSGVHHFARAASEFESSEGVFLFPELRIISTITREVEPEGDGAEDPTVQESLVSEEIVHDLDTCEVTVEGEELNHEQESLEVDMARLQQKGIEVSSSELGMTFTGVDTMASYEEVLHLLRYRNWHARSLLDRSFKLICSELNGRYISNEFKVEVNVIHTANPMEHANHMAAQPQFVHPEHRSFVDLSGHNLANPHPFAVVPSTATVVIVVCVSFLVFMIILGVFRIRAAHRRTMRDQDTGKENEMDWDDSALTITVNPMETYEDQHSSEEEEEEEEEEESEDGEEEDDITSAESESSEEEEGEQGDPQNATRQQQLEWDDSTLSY

The target of data set [3] is T2, FLAG-Alcbeta.
T2 chain 1: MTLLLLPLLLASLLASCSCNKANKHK
T2 chain 2: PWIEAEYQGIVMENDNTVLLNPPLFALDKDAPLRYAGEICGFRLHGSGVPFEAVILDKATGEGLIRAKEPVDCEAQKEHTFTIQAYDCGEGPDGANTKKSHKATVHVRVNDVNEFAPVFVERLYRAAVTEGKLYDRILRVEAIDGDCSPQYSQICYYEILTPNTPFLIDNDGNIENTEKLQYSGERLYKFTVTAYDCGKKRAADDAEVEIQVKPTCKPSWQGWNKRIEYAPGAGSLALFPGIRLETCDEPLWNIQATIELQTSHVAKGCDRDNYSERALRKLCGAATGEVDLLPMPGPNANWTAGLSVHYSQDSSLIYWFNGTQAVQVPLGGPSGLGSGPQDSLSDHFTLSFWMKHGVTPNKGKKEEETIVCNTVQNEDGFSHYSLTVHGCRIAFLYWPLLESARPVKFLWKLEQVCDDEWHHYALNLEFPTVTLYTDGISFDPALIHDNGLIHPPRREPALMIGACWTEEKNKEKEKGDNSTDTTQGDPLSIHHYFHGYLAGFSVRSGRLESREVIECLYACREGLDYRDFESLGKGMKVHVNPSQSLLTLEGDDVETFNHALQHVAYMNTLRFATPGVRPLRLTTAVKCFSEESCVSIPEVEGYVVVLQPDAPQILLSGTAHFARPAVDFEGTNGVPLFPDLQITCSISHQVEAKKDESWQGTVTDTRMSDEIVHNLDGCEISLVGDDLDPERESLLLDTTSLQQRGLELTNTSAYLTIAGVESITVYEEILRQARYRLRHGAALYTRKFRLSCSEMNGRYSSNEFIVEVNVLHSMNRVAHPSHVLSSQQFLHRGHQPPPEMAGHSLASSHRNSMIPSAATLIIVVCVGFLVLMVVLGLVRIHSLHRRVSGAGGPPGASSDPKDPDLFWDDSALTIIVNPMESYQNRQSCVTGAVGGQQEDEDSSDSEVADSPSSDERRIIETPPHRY

Data set [4] has as its target T3, FLAG-Alcgamma.
T3 chain 1: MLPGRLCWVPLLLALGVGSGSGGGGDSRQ
T3 chain 2: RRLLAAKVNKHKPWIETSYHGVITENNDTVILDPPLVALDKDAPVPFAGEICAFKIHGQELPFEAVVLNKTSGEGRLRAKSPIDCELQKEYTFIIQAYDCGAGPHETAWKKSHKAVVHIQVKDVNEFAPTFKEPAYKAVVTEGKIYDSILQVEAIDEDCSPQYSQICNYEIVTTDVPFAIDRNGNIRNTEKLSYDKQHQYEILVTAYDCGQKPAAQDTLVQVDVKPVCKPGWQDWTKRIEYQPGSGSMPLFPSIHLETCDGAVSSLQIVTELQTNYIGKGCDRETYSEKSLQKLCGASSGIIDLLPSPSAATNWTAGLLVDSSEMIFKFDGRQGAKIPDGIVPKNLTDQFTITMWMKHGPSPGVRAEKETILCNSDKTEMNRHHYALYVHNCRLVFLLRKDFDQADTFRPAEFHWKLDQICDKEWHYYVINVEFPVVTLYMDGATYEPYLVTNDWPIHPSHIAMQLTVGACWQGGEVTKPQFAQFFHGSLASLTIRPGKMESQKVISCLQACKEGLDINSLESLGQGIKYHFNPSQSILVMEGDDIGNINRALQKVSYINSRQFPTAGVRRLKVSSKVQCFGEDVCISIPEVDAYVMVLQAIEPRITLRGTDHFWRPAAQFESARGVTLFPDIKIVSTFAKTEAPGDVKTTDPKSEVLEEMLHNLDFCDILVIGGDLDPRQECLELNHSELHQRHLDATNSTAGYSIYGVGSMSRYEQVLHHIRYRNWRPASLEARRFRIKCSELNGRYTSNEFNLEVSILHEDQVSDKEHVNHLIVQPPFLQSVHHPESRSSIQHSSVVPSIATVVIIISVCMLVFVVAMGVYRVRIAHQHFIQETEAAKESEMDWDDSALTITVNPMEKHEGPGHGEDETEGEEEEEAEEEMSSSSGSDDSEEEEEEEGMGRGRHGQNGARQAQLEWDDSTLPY

FLAG-APP, P05067, sequence (P05067 whole entry, looked up): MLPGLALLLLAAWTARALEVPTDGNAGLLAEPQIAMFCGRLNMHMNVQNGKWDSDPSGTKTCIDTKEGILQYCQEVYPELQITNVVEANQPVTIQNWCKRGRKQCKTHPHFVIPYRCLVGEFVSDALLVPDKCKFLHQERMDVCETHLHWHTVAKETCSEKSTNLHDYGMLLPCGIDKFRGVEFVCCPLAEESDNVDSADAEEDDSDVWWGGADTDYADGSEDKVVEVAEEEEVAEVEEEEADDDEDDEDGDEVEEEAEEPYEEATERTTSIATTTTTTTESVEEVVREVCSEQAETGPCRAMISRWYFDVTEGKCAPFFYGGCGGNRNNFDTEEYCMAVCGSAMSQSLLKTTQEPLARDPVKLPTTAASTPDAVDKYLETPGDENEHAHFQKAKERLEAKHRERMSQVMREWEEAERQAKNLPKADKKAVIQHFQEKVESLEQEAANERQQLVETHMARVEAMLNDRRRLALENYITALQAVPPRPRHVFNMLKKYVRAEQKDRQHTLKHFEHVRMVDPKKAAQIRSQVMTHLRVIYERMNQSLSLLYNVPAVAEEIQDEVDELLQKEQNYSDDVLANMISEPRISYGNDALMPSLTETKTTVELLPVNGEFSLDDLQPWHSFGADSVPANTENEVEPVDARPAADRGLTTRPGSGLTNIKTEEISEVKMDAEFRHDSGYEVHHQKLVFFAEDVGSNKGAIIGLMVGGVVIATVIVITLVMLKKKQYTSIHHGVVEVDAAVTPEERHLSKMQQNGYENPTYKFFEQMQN

B1: ADAM10 (endogenous, mouse embryonic fibroblasts) (protein)
chain: TTLAERNTCQLYIQTDHLFFKYYGTREAVIAQISSHVKAIDTIYQTTDFSGIRNISFMVKRIRINTTSDEKDPTNPFRFPNIGVEKFLELNSEQNHDDYCLAYVFTDRDFDDGVLGLAWVGAPSGSSGGICEKSKLYSDGKKKSLNTGIITVQNYGSHVPPKVSHITFAHEVGHNFGSPHDSGTECTPGESKNLGQKENGNYIMYARATSGDKLNNNKFSLCSIRNISQVLEKKRNNCFVESGQPICGNGMVEQGEECDCGYSDQCKDDCCFDANQPEGKKCKLKPGKQCSPSQGPCCTAQCAFKSKSEKCRDDSDCAKEGICNGFTALCPASDPKPNFTDCNRHTQVCINGQCAGSICEKYDLEECTCASSDGKDDKELCHVCCMKKMAPSTCASTGSLQWSKQFSGRTITLQPGSPCNDFRGYCDVFMRCRLVDADGPLARLKKAIFSPQLYENIAEWIVAHWWAVLLMGIALIMLMAGFIKICSVHTPSSNPKLPPPKPLPGTLKRRRPPQPIQQPPRQRPRESYQMGHMRR
As for B1, the “amount of sAPP secreted into the medium (western blot of anti-FLAG immunoprecipitate), ADAM10 (-/-) against (+/-) MEFs” value in data set [1] is “ADAM (-/-) MEFs secreted sAPP (lane 2 of FIG. 1D) 40% lower than ADAM (+/-) MEFs”. Further, the “amount of sAlcalpha secreted into the medium (western blot of anti-FLAG immunoprecipitate), ADAM10 (-/-) against (+/-) MEFs” value in data set [2] is “The amounts of sAlcalpha, sAlcbeta, and sAlcgamma secreted by ADAM (-/-) MEFs were as low as that of APP”. Besides, the “amount of sAlcbeta secreted into the medium (western blot of anti-FLAG immunoprecipitate), ADAM10 (-/-) against (+/-) MEFs” value in data set [3] was “The amounts of sAlcalpha, sAlcbeta, and sAlcgamma secreted by ADAM (-/-) MEFs were as low as that of APP”. In addition, the “amount of sAlcgamma secreted into the medium (western blot of anti-FLAG immunoprecipitate), ADAM10 (-/-) against (+/-) MEFs” value in data set [4] is “The amounts of sAlcalpha, sAlcbeta, and sAlcgamma secreted by ADAM (-/-) MEFs were as low as that of APP”.
